Key:
production strain JM15 = test: Cysteine production in 1 L fermenter, JM15 with plasmid-encoded cysE alleles; format: cell-based, E. coli; conditions: 48 h, JM15 transformed with plasmid
Method: Influence of different, plasmid-encoded cysE alleles on the production of L-cysteine or products derived from L-cysteine in a 1 L fermenter using the host strain JM15 20 mL of LB medium (1% tryptone, 0.5% yeast extract, 0.5% NaCl) contained in a 100 mL Erlenmeyer flask were inoculated with a single colony of the production strain JM15 (CGSC#5042) which had been transformed with the respective cysE plasmid.
After having been incubated for 7 hours in a bacterial shaker (30° C., 150 rpm), the respective preliminary cultures were transferred to 100 mL of SM1 medium. The SM1 medium contained 5 g/L glucose, 5 mg/L vitamin B1, 3 g/l KH2 PO4, 12 g/L K2 HPO4, 0.3 g/L MgSO4×7 H2 O, 0.1 g/L NaCl, 5 g/L (NH4)2 SO4, 14.7 mg/L CaCl2×2 H2 O, 2 mg/L FeSO4×2 H2 O, 1 g/L Na3 citrate×2 H2 O, 1 ml/L trace element solution and 25 mg/L tetracycline. The trace element solution was composed of 0.15 g/L Na2 MoO4×2 H2 O, 2.5 g/L H3 BO3, 0.7 g/L CoCl2×6 H2 O, 0.25 g/L CuSO4×5 H2 O, 1.6 g/L MnCl2×4 H2 O and 0.3 g/L ZnSO4×7 H2 O. The cultures were shaken in 1 L Erlenmeyer flasks at 30° C. and at 150 rpm for 17 h. After this incubation, the OD600 was between 4 and 5. The subsequent fermentation was carried out in Braun-Melsungen BIOSTAT M research fermenters. A culturing vessel having a total volume of 2 L was used.
The fermentation medium contained 15 g/L glucose, 5 g/L NaCl, 0.3 g/L MgSO4×7 H2 O, 15 mg/L CaCl2×2 H2 O, 75 mg/L FeSO4×7 H2 O, 1 g/L Na3 citrate×2 H2 O, 1.5 g/L KH2 PO4, 1 mL of trace element solution (see above), 5 mg/L vitamin B1, 2.5 g/L yeast extract (Difco), 2.5 g/L tryptone (Difco) and 25 mg/L tetracycline.
The glucose concentration in the fermenter was initially adjusted to a value of 15 g/L by pumping in a 700 g/L (w/v) (sterilized) glucose solution, and the pH was adjusted to 7.0 by pumping in a 25% NH4 OH solution. After an OD600 of 10 had been reached, 300 mg per hour were supplied from a sterile 100 g/L (w/v) stock solution of thiosulfate. 100 mL of preliminary culture were pumped into the fermenter vessel for the inoculation. The starting volume was approximately 1 L. The cultures were initially stirred at 400 rpm and aerated with 1.5 vvm of compressed air which had been sterilized by passing through a sterile filter. The fermentation was carried out at a temperature of 30° C.
The pH was maintained at a value of 7.0 by means of automatic correction with 25% NH4 OH. The oxygen saturation in the fermentation broth had at no time during the fermentation to fall below 20%; the stirring speed was used to ensure this. The glucose content of the nutrient solution, the optical density and the cysteine content were determined at two- to three-hourly intervals. The glucose content was determined enzymically using a glucose analyzer from YSI. The concentration of the glucose was adjusted to between 10 and 20 g/L by means of continuously feeding in this compound.
The content of cysteine in the medium was determined […] from the cell-free super-natant of the sample using the method of Gaitonde, M. K. (1967), Biochem. J. 104, 627-633.
The fermentation was terminated after 44-50 h.

serine acetyltransferase = test: Serine acetyltransferase enzyme activity test with and without L-cysteine (inhibitor constant Ki, specific activity); format: biochemical, E. coli; conditions: for Ki: inhibitor L-cysteine
Text: Any method which enables the activity of the serine acetyltransferase to be determined in the presence of cysteine can be used for determining the cysteine sensitivity of this enzyme. For example, the serine acetyltransferase activity can be determined using the method described by Kredich and Tomkins, J. Biol. Chem. 241: 4955-4965 (1966). In this test, the enzyme test mixture contains the substrate, L-serine, and the cofactor, acetyl-coenzyme A. The reaction is started by adding enzyme and monitored, in a spectro photometer, by observing the decrease in absorption at 232 nm which is elicited by the cleavage of the thioester bond in the acetyl-coenzyme A.
The above-described enzyme test is suitable for determining the cysteine sensitivity of any serine acetyltransferase enzyme, including the enzymes which have a modified carboxyl terminus. Inhibition of the serine acetyltransferase activity is tested in the presence of differing concentrations of L-cysteine in the reaction mixture. The catalytic activity of the different serine acetyltransferase enzymes is determined in the presence and absence of L-cysteine, and the inhibitor constant, Ki, is ascertained from this (Kredich and Tomkins, J. Biol. Chem., 241, 4955-4965 (1966)).
In order to investigate the biochemical basis of the cysteine secretion of the revertants, the activity of the serine acetyltransferase was determined in vitro, and the ability of cysteine to inhibit the enzyme was measured. For the determination, use was made of S30 extracts (cell homogenates centrifuged at 30,000 g and 4° C. for 20 minutes) of the selected revertants, the starting strains and the comparison strain, E. coli W3110 (ATTC 27325).
The biochemical parameters such as enzyme activity and inhibitor constant, Ki, were determined in an analogous manner to that described in Example 1.
The plasmids resulting from this cloning were designated pACYC184/cysE-Del in accordance with the extent of their deletion (cf. FIG. 9 for the plasmid map). Determination of the enzymic activity and the inhibitor constant, Ki, and also the cross-feeding test, were carried out in analogy with the description in Example 1. DNA sequence analysis was used to confirm that the deletions had been correctly introduced.
Determination of the enzymic activity and of the inhibitor constant Ki, and also the cross-feeding test, were carried out in analogy with the description in Example 1.

JM15attλ::cysE strains = test: Cysteine production in 1 L fermenter, chromosomally encoded cysE alleles; format: cell-based, E. coli; conditions: single chromosomal copy
Method: For the purpose of being integrated into the chromosomal attachment site (attλ), the cysE alleles cysEIV, cysEX and cysEXI were cloned into the plasmid pRS551 (Simons et al., 1987, Gene 53: 85-96). For this, each cysE allele was amplified by PCR from the corresponding cysE plasmid. The oligonucleotides which were used, i.e. cysE-fwl and cysE-revl, are described in Example 1. The amplification was carried out as described in Example 3. The resulting fragments were cleaved with EcoRI/BamHI, purified through an agarose gel and ligated into vector pRS551 which had been cleaved with EcoRI and BamHI. This afforded the vector pRS551-based recombinant plasmids pRScysEIV, X and XI.
A heterogeneous lambda lysate, which contained recombinant cysE allele-carrying λRS45 derivatives in addition to λRS45 phages, was produced in vivo by homologous recombination by means of preparing a plate lysate on a pRScysE-carrying recA^+ strain (e.g. YMC9, ATCC 3397) using the λRS45 phage (Simons et al., 1987, Gene 53: 85-96).
The cysE strain JM15, which was infected with the heterogeneous lambda lysate and subsequently plated on kanamycin-containing (25 mg/L) LB plates, was used for selecting for the recombinant RS45 derivatives. The lysogenic, kanamycin-resistant clones which were obtained were then tested for their ability to grow on minimal medium plates without cysteine. A clone which was in each case cysteine-prototrophic was selected and used for preparing a homogeneous cysE λ lysate (by means of UV induction, Simons et al., 1987, Gene 53: 85-96).
The JM15 stain was infected with these homogeneous cysE λ lysates which were obtained in each case. The resulting JM15attλ::cysE strains were cultured as described in Example 6. Instead of tetracycline, the respective media in each case contained 25 mg of kanamycin per L as the selection agent.

[1] = Table 1b, carboxyterminal deletions
[2] = Table 1a, 1 mM L-serine, 0.1 mM acetyl-CoA
[3] = Table 1a, serine acetyltransferase activity
[4] = Table 2, alleles from chemical mutagenesis
[5] = Table 4, alleles from site-specific mutagenesis

Molecule | Cysteine yield (production strain JM15) [g/L] | spec. act. (serine acetyltransferase; [1]) [μmol/min x mg] | Ki (serine acetyltransferase; [1]) [µM] | Ki (serine acetyltransferase; Table 6, carboxyterminal deletions) [µM] | Ki (serine acetyltransferase; [2]) [µM] | spec. act. (serine acetyltransferase; [3]) [µmol/min/mg] | Ki (serine acetyltransferase; [4]) [µM] | yields of cysteine (JM15attλ::cysE strains) [g/L] | Ki (serine acetyltransferase; [5]) [µM]
cysE-Del255: carboxyterminal deletion of 18 amino acids, terminal Asp255 (protein, UniProt P0A9D4 1-255, looked up, fragment) MSCEELEIVWNNIKAEARTLADCEPMLASFYHATLLKHENLGSALSYMLANKLSSPIMPAIAIREVVEEAYAADPEMIASAACDIQAVRTRDPAVDKYSTPLLYLKGFHALQAYRIGHWLWNQGRRALAIFLQNQVSVTFQVDIHPAAKIGRGIMLDHATGIVVGETAVIENDVSILQSVTLGGTGKSGGDRHPKIREGVMIGAGAKILGNIEVGRGAKIGAGSVVLQPVPPHTTAAGVPARIVGKPDSDKPSMD | 3.9 | 0.624 | 30 | 30 | – | – | – | – | –
cysEX: mutant Thr167->Ala167 (protein, UniProt P0A9D4 1-273, looked up, variant T167A) Serine acetyltransferase: MSCEELEIVWNNIKAEARTLADCEPMLASFYHATLLKHENLGSALSYMLANKLSSPIMPAIAIREVVEEAYAADPEMIASAACDIQAVRTRDPAVDKYSTPLLYLKGFHALQAYRIGHWLWNQGRRALAIFLQNQVSVTFQVDIHPAAKIGRGIMLDHATGIVVGEAAVIENDVSILQSVTLGGTGKSGGDRHPKIREGVMIGAGAKILGNIEVGRGAKIGAGSVVLQPVPPHTTAAGVPARIVGKPDSDKPSMDMDQHFNGINHTFEYGDGI | 3.4 | – | – | – | 50 | 0.156 | 50 | 1.8 | –
cysEVI: double mutant Ser238, Ile256 (protein, UniProt P0A9D4 1-273, looked up, variant G238S M256I) Serine acetyltransferase: MSCEELEIVWNNIKAEARTLADCEPMLASFYHATLLKHENLGSALSYMLANKLSSPIMPAIAIREVVEEAYAADPEMIASAACDIQAVRTRDPAVDKYSTPLLYLKGFHALQAYRIGHWLWNQGRRALAIFLQNQVSVTFQVDIHPAAKIGRGIMLDHATGIVVGETAVIENDVSILQSVTLGGTGKSGGDRHPKIREGVMIGAGAKILGNIEVGRGAKIGAGSVVLQPVPPHTTAASVPARIVGKPDSDKPSMDIDQHFNGINHTFEYGDGI | 1.4 | – | – | – | 10 | 0.075 | – | – | 10
cysEXXIII: triple mutant Ala167, Val237, Ser238 (protein, UniProt P0A9D4 1-273, looked up, variant T167A A237V G238S) Serine acetyltransferase: MSCEELEIVWNNIKAEARTLADCEPMLASFYHATLLKHENLGSALSYMLANKLSSPIMPAIAIREVVEEAYAADPEMIASAACDIQAVRTRDPAVDKYSTPLLYLKGFHALQAYRIGHWLWNQGRRALAIFLQNQVSVTFQVDIHPAAKIGRGIMLDHATGIVVGEAAVIENDVSILQSVTLGGTGKSGGDRHPKIREGVMIGAGAKILGNIEVGRGAKIGAGSVVLQPVPPHTTAVSVPARIVGKPDSDKPSMDMDQHFNGINHTFEYGDGI | 2.7 | – | – | – | 2300 | 0.085 | – | – | 2300
cysEV: triple mutant Val237, Ser238, Ile256 (protein, UniProt P0A9D4 1-273, looked up, variant A237V G238S M256I) Serine acetyltransferase: MSCEELEIVWNNIKAEARTLADCEPMLASFYHATLLKHENLGSALSYMLANKLSSPIMPAIAIREVVEEAYAADPEMIASAACDIQAVRTRDPAVDKYSTPLLYLKGFHALQAYRIGHWLWNQGRRALAIFLQNQVSVTFQVDIHPAAKIGRGIMLDHATGIVVGETAVIENDVSILQSVTLGGTGKSGGDRHPKIREGVMIGAGAKILGNIEVGRGAKIGAGSVVLQPVPPHTTAVSVPARIVGKPDSDKPSMDIDQHFNGINHTFEYGDGI | 1.3 | – | – | – | 10 | 0.246 | – | – | 10
cysEXII: triple mutant Lys97->Gln97, Gly238->Ser238, Phe267->Leu267 (protein, UniProt P0A9D4 1-273, looked up, variant K97Q G238S F267L) Serine acetyltransferase: MSCEELEIVWNNIKAEARTLADCEPMLASFYHATLLKHENLGSALSYMLANKLSSPIMPAIAIREVVEEAYAADPEMIASAACDIQAVRTRDPAVDQYSTPLLYLKGFHALQAYRIGHWLWNQGRRALAIFLQNQVSVTFQVDIHPAAKIGRGIMLDHATGIVVGETAVIENDVSILQSVTLGGTGKSGGDRHPKIREGVMIGAGAKILGNIEVGRGAKIGAGSVVLQPVPPHTTAASVPARIVGKPDSDKPSMDMDQHFNGINHTLEYGDGI | 1.2 | – | – | – | 40 | 0.254 | 40 | – | –
